± gives the standard deviation of the averaged measurements.
These sequences were tested on ATP (assay: switch fluorescence ratio, 500 uM ATP over buffer (Cy3 cluster intensity, sum of 5 cycles each) (fold (ratio)); higher = stronger signal-on switching upon ATP binding; sequences stand for … in TCGTCGGCAGCGTCAGATGTGTATAAGAGACAGTTTTTTTTTTTTTTTTTTTTTTTTT…TC). Conditions: aptamer strand: ATP DNA aptamer (quencher-CACCTGGGGGAGTATTGCGGAGGAAGG + anchor), 100 nM annealed; ATP concentration: 500 uM.
How it was run: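 Between each of five buffer/ATP cycles, the flow-cell was stripped with NaOH and re-annealed. Each cycle imaged Cy3-labelled switching-strand clusters, annealed to 100 nM quencher-labelled ATP aptamer on a modified Illumina MiSeq flow-cell, first in selection buffer and then after 15 min with 500 uM ATP at 22 °C. The fluorescence ratio is summed target-cycle over summed buffer-cycle Cy3 intensity per cluster, averaged per switch-domain sequence, with clusters outside 100-1000 RFU excluded.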
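Further: ATP exposure 15 min at 22 °C before imaging.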

Point of comparison: CCGGTTAAGC, switch fluorescence ratio 1.2 ± 0.057. Against it:
- CGGGTGGGGG — lower, 1.07 ± 0.036
- AGTTGATGGT — lower, 0.96898 ± 0.00096
- AGGGGACTTG — lower, 1.01 ± 0.06
- TTAAAGTTGC — lower, 1.02 ± 0.038
- CAGTTGGGAG — lower, 1.01 ± 0.029
- AACAACAGGA — lower, 1.03 ± 0.045
- GAAGTCCATG — lower, 1.01 ± 0.014
- GGTACGTTTG — lower, 0.993 ± 0.033
- AGAATGAGGG — lower, 0.991 ± 0.041
- CAACCGGTTG — lower, 0.984 ± 0.017
- GCGTAAGTGC — lower, 1.092 ± 0.006
- TTTAAGTTGG — lower, 0.983 ± 0.013
- TTTAGGCCTC — lower, 1.01 ± 0.014
- ATGCAAGGTT — lower, 1.01 ± 0.018
- ATTCTTTGGT — lower, 0.979 ± 0.054
- ATCAAAATTG — lower, 1.01 ± 0.027
- ATGGGGACTT — lower, 0.979 ± 0.035
- GGGTAGGGTC — lower, 1.01 ± 0.022
- ACTAAGGGAG — lower, 1.01 ± 0.005
- ACTTGGGCTT — lower, 1.03 ± 0.051
- ATTGCGCAAG — lower, 1.01 ± 0.02
- TGATAATTTG — lower, 1.006 ± 0.01
- GAGATCATTG — lower, 1.07 ± 0.057
- TCAAACGCGT — lower, 1.01 ± 0.037
- CCTTGGTACA — lower, 1.03 ± 0.015
- TAATACTTAT — lower, 0.994 ± 0.033
- GCCTCAGACA — lower, 1.047 ± 0.0092
- ATAAGCTTCT — within error, 1.09 ± 0.073
- ACATCATACG — within error, 1.233 ± 0.01
- GTATCAACGG — lower, 1.034 ± 0.0028
- GCGGGCTGAA — lower, 0.962 ± 0.014
- CTTAATCTC — lower, 0.968 ± 0.02
- ACGCTGCCGG — within error, 1.1 ± 0.057
- TTTTAAGGTG — higher, 1.39 ± 0.055
- AAGTAAGTAG — lower, 1.01 ± 0.021
- ATGACTTCGG — lower, 0.99 ± 0.028
- AAAGAAAGC — lower, 1.02 ± 0.08
- TTACACAAAA — lower, 1 ± 0.033
- AAAATGATTT — lower, 1.02 ± 0.043
- CCGGGGCCTG — within error, 1.05 ± 0.095
- AGTTTTGTGT — lower, 0.972 ± 0.0098
- GCATAGAAAA — lower, 0.982 ± 0.015
- GCGGTGATGG — lower, 1 ± 0.035
- TAGAAAAGCA — lower, 0.997 ± 0.024
- TGGGGGGTGA — lower, 0.997 ± 0.049
- CCCTGAGGAT — lower, 1.01 ± 0.031
- CGCATCGTAA — lower, 1.074 ± 0.0044
- CGGGTTAATA — lower, 0.989 ± 0.022
- TCATGTTTTG — lower, 0.9969 ± 0.0032
- GGTCATGTTG — lower, 0.997 ± 0.051
- GGGAGGGACC — lower, 1.01 ± 0.011
- TGGGGTAGGG — lower, 0.998 ± 0.026
- CAGGTTTATA — lower, 0.993 ± 0.022
- TAGGTCCGTT — lower, 0.988 ± 0.031
- GATTTTTTAG — lower, 0.998 ± 0.018
- GTTGGAAGGT — lower, 1.02 ± 0.012
- TTTAGCCTTT — within error, 1.06 ± 0.11
- TTAAGAACCT — within error, 1.31 ± 0.13
- AATGTGGTAA — lower, 0.959 ± 0.043
- AAAAGTGTTG — lower, 0.948 ± 0.03
- TACTAGTTGT — lower, 0.99 ± 0.022
- AAAAACTCTG — lower, 1.01 ± 0.079
- TAGACTTATG — lower, 1.04 ± 0.02
- ATTTATTCCT — lower, 1.05 ± 0.015
- TTGGTCAAGG — lower, 0.995 ± 0.045
- TGGTGCATTT — within error, 1.06 ± 0.14
- TTTTTAAAAA — lower, 1.01 ± 0.059
- GCCGGCTGTG — lower, 0.9902 ± 0.0018
- ACCCTTATAG — lower, 1.018 ± 0.0093
- TCGGGCGTAT — lower, 1 ± 0.056
- TGCAAAAAGG — lower, 1.03 ± 0.014
- GGGTTGAGTT — lower, 0.9849 ± 0.0035
- TGGTTATGGG — lower, 0.985 ± 0.022
- ATTCATGTGT — lower, 1.02 ± 0.026
- GTCGGTATTA — lower, 0.984 ± 0.034
- GCTGCTGGTA — lower, 1.02 ± 0.024
- TTGTGTATTT — lower, 1.001 ± 0.0098
- CGGCTCCCGC — lower, 1.046 ± 0.0084
- GAGGTGGTAG — lower, 0.951 ± 0.034
- TGCGCATCTA — lower, 1.038 ± 0.0098
- ACGTCAGTTG — lower, 0.975 ± 0.012
- TTTATAACAG — lower, 0.982 ± 0.021
- GGCGTTTGCT — lower, 0.9827 ± 0.0086
- GAAGTTTTGG — lower, 0.996 ± 0.028
